Assay results taken from the RNAGym collection of RNA variant scans (doi:10.7554/elife.80360).

B1: Hairpin Ribozyme (parent)
chain: GUCCUCUUUCACGUGCGCGUGAAAGAGAGAAGUGAACCAGAGAAACACACGUUGUGGUAUAUUACCUGGUA

Variants of: B1
Assay: self-cleavage, relative activity (ratio to wild type); higher = more cleavage; co-transcriptional

Row | Variant | self-cleavage
1 | C65U U70C | 0.111
2 | C65U U70G | 0.148
3 | A64G G69U | 0.116
4 | U63C A64C | 0.224
5 | U62G U70A | 0.163
6 | U62C U70G | 0.126
7 | A61C U70C | 0.169
8 | C66A U67C | 0.159
9 | A64C U67G | 0.147
10 | G69A U70A | 0.434
11 | U62C U63A | 0.21
12 | U62C U63C | 0.168
13 | U60G G68C | 0.127
14 | A61U U70G | 0.261
15 | A61U U70C | 0.231
16 | G68U G69C | 0.136
17 | A64U A71U | 0.305
18 | A64G C66G | 0.226
19 | U67G U70C | 0.588
20 | U67G U70A | 0.214
21 | U67G U70G | 0.125
22 | A64G G68U | 0.19
23 | A64G G68C | 0.122
24 | U62G C66G | 0.0965
25 | U60A C65G | 0.254
26 | U60A C65U | 0.301

Row | Variant | self-cleavage
27 | C66U G68A | 0.0865
28 | C66U G68U | 0.334
29 | U60C C65U | 0.909
30 | U60C C65G | 0.531
31 | U60A A61C | 0.133
32 | U60A A61U | 0.17
33 | U63A A64G | 0.0955
34 | A64U C66A | 0.156
35 | A64U C66G | 0.069
36 | U67C G69C | 0.188
37 | C66A G69U | 0.156
38 | C66A G69C | 0.239
39 | U63G C66A | 0.119
40 | U63G C66U | 0.109
41 | U67G G69C | 0.13
42 | U67G G69U | 0.165
43 | U62A G68U | 0.28
44 | U60A U62A | 0.0542
45 | U60A U62C | 0.373
46 | U60A U62G | 0.0972
47 | G69C U70G | 0.657
48 | A64C C66G | 0.084
49 | A64C C66U | 0.27
50 | A64C C66A | 0.0503
51 | U63G G69C | 0.138
52 | U60G U63C | 0.171

Row | Variant | self-cleavage
53 | A59U G68A | 0.231
54 | A59U G68U | 0.188
55 | A61C U63A | 0.177
56 | A59U C65A | 0.19
57 | U63C C66A | 0.23
58 | A59U U63C | 0.12
59 | U63G U70G | 0.182
60 | U63G U70C | 0.161
61 | U60A G68A | 0.298
62 | C66G U67C | 0.219
63 | A64U U70A | 0.257
64 | A59G C65G | 0.247
65 | A59G C65A | 0.155
66 | U63C G69U | 0.183
67 | U63C G69C | 0.28
68 | C65G A71G | 0.187
69 | C65G A71C | 0.697
70 | C65G A71U | 0.219
71 | U60G G69C | 0.317
72 | U60G G69A | 0.0995
73 | C66A A71U | 0.184
74 | C66A A71C | 0.445
75 | A59G G69C | 0.161
76 | G68U U70A | 0.269
77 | G68U U70C | 0.201
78 | U70A A71U | 1.63

Row | Variant | self-cleavage
79 | U70A A71G | 0.886
80 | C65A U70A | 0.686
81 | U67C G68C | 0.178
82 | U60G U67G | 0.202
83 | C66G G69C | 0.145
84 | C66G G69U | 0.0961
85 | A64U U67G | 0.13
86 | C66A G68A | 0.126
87 | U67G A71C | 0.37
88 | A59G U62A | 0.144
89 | A64U | 0.181
90 | A64G | 0.544
91 | A64C | 0.174
92 | A59G C66U | 0.0625
93 | A59G G68C | 0.144
94 | G69U U70A | 0.346
95 | A59G A64U | 0.181
96 | A64C A71G | 0.266
97 | C66G U70A | 0.273
98 | C66G U70C | 0.132
99 | C66G U70G | 0.2
100 | U62G U67C | 0.133
101 | U62G U67G | 0.127
102 | U67G G68A | 0.138
103 | U63A A71C | 0.287
104 | U63A U70C | 0.36

Row | Variant | self-cleavage
105 | C66A U70C | 0.305
106 | C66A U70G | 0.176
107 | U60A A71G | 0.839
108 | U60C U70G | 1.03
109 | U60C U70C | 1.28
110 | A64C G68C | 0.273
111 | U63C U70G | 0.248
112 | U60A A64C | 0.206
113 | U60A A64U | 0.0988
114 | U60A A64G | 0.353
115 | C65A C66G | 0.0953
116 | U63G U67A | 0.159
117 | U60G U62C | 0.244
118 | U60G U62G | 0.222
119 | A61U C66G | 0.233
120 | C66U A71U | 0.417
121 | C66U A71G | 0.484
122 | A71G | 1.04
123 | A71U | 0.796
124 | A71C | 1.42
125 | U62A U67G | 0.173
126 | A61G U62G | 0.128
127 | A64U G68C | 0.213
128 | A59G | 0.17
129 | A59U | 0.157
130 | G68A A71G | 0.174

Row | Variant | self-cleavage
131 | C66U U70C | 0.506
132 | C66U U70A | 0.356
133 | U62G A71G | 0.143
134 | U62G A71C | 0.281
135 | A61U U63A | 0.123
136 | A61C G68A | 0.116
137 | A61C G68U | 0.278
138 | A61G A64C | 0.109
139 | A61U U67A | 0.178
140 | A61U U67G | 0.129
141 | A61U U67C | 0.175
142 | C65G U67G | 0.0652
143 | U63A G69A | 0.153
144 | C66U U67A | 0.162
145 | U60A C66U | 0.274
146 | U60A C66A | 0.365
147 | U60C U62C | 0.569
148 | U60C U62A | 0.253
149 | A59U C66G | 0.185
150 | A59U C66A | 0.128
151 | G68A U70C | 0.336
152 | G68A U70G | 0.3
153 | U60C A61C | 0.264
154 | U60G A61U | 0.259
155 | A59U A64U | 0.191
156 | A61C C65G | 0.189

Row | Variant | self-cleavage
157 | A59U U67G | 0.143
158 | A64G U70A | 0.597
159 | A64G U70G | 0.47
160 | U63G A71U | 0.117
161 | G68C G69A | 0.152
162 | G68C G69C | 0.206
163 | A61G C65A | 0.159
164 | A61G C65G | 0.303
165 | U60C G69U | 0.0645
166 | G68C U70G | 0.576
167 | A64U G69A | 0.115
168 | U60G A64G | 0.335
169 | U60G A64C | 0.186
170 | G68U | 0.254
171 | G68C | 0.212
172 | G68A | 0.282
173 | U62C G69A | 0.112
174 | U67C A71G | 0.132
175 | U67C A71C | 0.359
176 | A61C A71G | 0.286
177 | A61G U70G | 0.156
178 | A64C C65G | 0.161
179 | U67A | 0.229
180 | U67C | 0.227
181 | U67G | 0.28
182 | C65A A71C | 1.07

Row | Variant | self-cleavage
183 | U62G G68C | 0.186
184 | U62A U70G | 0.16
185 | A59G U63C | 0.134
186 | U70G A71G | 1.82
187 | U63G A64U | 0.157
188 | U63G A64C | 0.191
189 | A61C U62C | 0.166
190 | U62A C65U | 0.204
191 | U62A C65A | 0.165
192 | U62C A71G | 0.236
193 | U62C A71U | 0.277
194 | C66G G68U | 0.0439
195 | C66G G68C | 0.0397
196 | C65U U67A | 0.309
197 | U63A C65G | 0.173
198 | U62G C65U | 0.0799
199 | A61G C66G | 0.329
200 | U60C U63G | 0.136
201 | U60C | 1.16
202 | U60G | 0.615
203 | U60A | 0.849
204 | A61G U67A | 0.328
205 | A64U C65G | 0.188
206 | A59U U60A | 0.195
207 | U67A U70C | 0.247
208 | U60G C66G | 0.261

Row | Variant | self-cleavage
209 | A59G A71C | 0.444
210 | A61U A71U | 0.171
211 | A59U G69C | 0.323
212 | A59U G69A | 0.182
213 | A59U G69U | 0.191
214 | U67A G69U | 0.321
215 | A64C U70G | 0.127
216 | G68A G69A | 0.103
217 | G68A G69C | 0.19
218 | A61C G69C | 0.0992
219 | U62C C66U | 0.189
220 | U62C C66G | 0.213
221 | C65G U70G | 0.19
222 | C65G U70C | 0.189
223 | U62A C66U | 0.143
224 | G69C A71U | 0.57
225 | C65U G68A | 0.249
226 | U62C C65U | 0.162
227 | U62C C65A | 0.212
228 | A61G G68C | 0.195
